B1: scFv; the commonest letter at each place (parent)
chain 1: EVKLDETGGGLVQPGRPMKLSCVASGFTFSDYWMNWVRQSPEKGLEWVAQIRNKPYNYETYYSDSVKGRFTISRDDSKSSVYLQMNNLRVEDMGIYYCTGSYYGMDYWGQGTSVTVS
chain 2: DVVMTQTPLSLPVSLGDQASISCRSSQSLVHSNGNTYLRWYLQKPGQSPKVLIYKVSNRFSGVPDRFSGSGSGTDFTLKISRVEAEDLGVYFCSQSTHVPWTFGGGTKLEIK

Bounds are passed on as bounds.

The variants in the series “fluorescein” derive from B1. The experiment in a line: Kd (Tite-Seq). To be noted: with fluorescein; format: scFv 4-4-20, heavy + light.
The variants in series [1] derive from B1. The series can be described thus: yeast surface expression (ratio to wild type); higher = more expressed. To be noted: format: scFv 4-4-20, heavy + light.

For chain 1 F29G Y32Q, the equilibrium dissociation constant (Kd) in the series with fluorescein was not below 10 µM. In addition, in series [1], the yeast surface expression was 0.991.
On to chain 1 F29G S30E, for which, in the series with fluorescein, the Kd was not below 10 µM. In addition, the yeast surface expression in series [1] is 1.
With chain 1 F29G S30K, the dissociation constant (Kd) with fluorescein is not below 10 µM. Further, the yeast surface expression in series [1] came out at 1.04.
Consider chain 1 F29G S30N, for which, in the series with fluorescein, the Kd was not below 10 µM. Also, the yeast surface expression in series [1] turned out to be 0.933.
The corresponding values for chain 1 F29K M34F are 0.0233 µM and 0.631.
On to chain 1 F29K M34Y, for which the Kd in the series with fluorescein stood at 0.00708 µM. Besides, in series [1], the yeast surface expression was 0.801.
For the variant chain 1 F29C W36V, in the series with fluorescein, the Kd was not below 10 µM. The yeast surface expression in series [1] was determined as 0.635.
The like results for chain 1 F29K S30A W36A were, in that order, 0.0767 µM and 0.756.
On to chain 1 F29K D31K W33G, for which the dissociation constant Kd with fluorescein was not below 10 µM. For the same variant, in series [1], the yeast surface expression was 0.92.
As to chain 1 F29S N35R, the Kd in the series with fluorescein is 0.0434 µM. Besides, the yeast surface expression in series [1] is 0.922.
The corresponding values for chain 1 F29S N35H are not below 10 µM and 0.836.
The like results for chain 1 F29S N35Y were, in that order, 0.327 µM and 1.05.
On to chain 1 F29P D31I, for which the Kd in the series with fluorescein is not below 10 µM. Further, in series [1], the yeast surface expression is 0.679.
The corresponding values for chain 1 F29P D31R are 0.0259 µM and 0.86.
Turning to chain 1 D106W W108S, the Kd with fluorescein was not below 10 µM. Also, the yeast surface expression in series [1] amounted to 0.325.
The corresponding values for chain 1 D106W W108K are not below 10 µM and 0.243.
On to chain 1 D106W W108F, for which, in the series with fluorescein, the Kd is not below 10 µM. Further, in series [1], the yeast surface expression is 0.225.
The like results for chain 1 F29G W33K were, in that order, not below 10 µM and 0.65.
The like results for chain 1 F29N S30T M34E were, in that order, 0.311 µM and 1.73.
For chain 1 F29P V37W, the Kd with fluorescein was not below 10 µM. The yeast surface expression in series [1] was 0.685.
The like results for chain 1 F29P V37K were, in that order, 2.01 µM and 0.288.
The like results for chain 1 F29P V37H were, in that order, not below 10 µM and 0.626.
The corresponding values for chain 1 F29I S30R D31E are 0.228 µM and 0.688.
As to chain 1 F29L S30C N35A, the Kd with fluorescein was not below 10 µM. Also, the yeast surface expression in series [1] was found to be 0.89.
The like results for chain 1 F29A Y32N were, in that order, not below 10 µM and 0.832.
The like results for chain 1 F29E N35I were, in that order, 0.00672 µM and 0.276.
The corresponding values for chain 1 F29E N35T are not below 10 µM and 0.578.
For the variant chain 1 F29I W36L, the Kd with fluorescein is not below 10 µM. The yeast surface expression in series [1] is 0.729.
The like results for chain 1 F29E D31R were, in that order, not below 10 µM and 0.624.
chain 1 F29N S30E: the Kd with fluorescein was found to be 0.0391 µM. Moreover, the yeast surface expression in series [1] amounted to 1.07.
The corresponding values for chain 1 F29N S30Q are 0.876 µM and 1.02.
The like results for chain 1 F29N S30H were, in that order, not below 10 µM and 0.954.
The corresponding values for chain 1 F29N S30K are 0.228 µM and 1.13.
Take chain 1 F29N S30D: the dissociation constant (Kd) in the series with fluorescein was not below 10 µM. In addition, the yeast surface expression in series [1] worked out at 0.949.
The corresponding values for chain 1 F29R V37E are 1.08 µM and 0.545.
The like results for chain 1 F29R V37P were, in that order, not below 10 µM and 0.289.
The corresponding values for chain 1 F29R V37S are not below 10 µM and 0.385.
With chain 1 F29R V37N, in the series with fluorescein, the Kd was not below 10 µM. In addition, the yeast surface expression in series [1] was 0.445.
The like results for chain 1 F29N M34A were, in that order, not below 10 µM and 0.918.
For chain 1 F29N M34H, in the series with fluorescein, the Kd amounted to 1.63 µM. In addition, in series [1], the yeast surface expression was determined as 0.665.
The like results for chain 1 F29A M34G were, in that order, not below 10 µM and 0.656.
The like results for chain 1 F29A M34V were, in that order, not below 10 µM and 0.827.
With chain 1 F29A M34A, the Kd with fluorescein was not below 10 µM. In addition, the yeast surface expression in series [1] was determined as 0.738.
On to chain 1 F29A M34S, for which the Kd with fluorescein was not below 10 µM. The yeast surface expression in series [1] was 0.612.
Regarding chain 1 F29A M34R, the equilibrium dissociation constant (Kd) with fluorescein is not below 10 µM. In addition, the yeast surface expression in series [1] came out at 1.01.
chain 1 F29L S30L: the dissociation constant (Kd) with fluorescein is not below 10 µM. Besides, the yeast surface expression in series [1] came to 0.651.
For chain 1 F29E D31G N35R, the dissociation constant (Kd) with fluorescein was not below 10 µM. The yeast surface expression in series [1] amounted to 0.621.
The corresponding values for chain 1 D106W Y107N are not below 10 µM and 0.222.
The corresponding values for chain 1 D106W Y107I are not below 10 µM and 0.31.
For chain 1 D106W Y107F, in the series with fluorescein, the Kd was not below 10 µM. Moreover, in series [1], the yeast surface expression came to 0.264.
As to chain 1 D106W Y107L, the dissociation constant (Kd) in the series with fluorescein is not below 10 µM. For the same variant, the yeast surface expression in series [1] stood at 0.308.
The like results for chain 1 F29H W33R were, in that order, not below 10 µM and 0.182.
The like results for chain 1 F29N W36L were, in that order, not below 10 µM and 0.472.
On to chain 1 F29N W36H, for which the Kd in the series with fluorescein is not below 10 µM. In series [1], the yeast surface expression was found to be 0.279.
Consider chain 1 F29A S30V, for which the Kd with fluorescein is 3.94 µM. Moreover, in series [1], the yeast surface expression turned out to be 0.758.
The corresponding values for chain 1 F29N S30P M34H are not below 10 µM and 0.781.
chain 1 F29D S30A: the Kd in the series with fluorescein is not below 10 µM. In series [1], the yeast surface expression was determined as 0.941.
For chain 1 F29D S30K, the Kd with fluorescein was not below 10 µM. The yeast surface expression in series [1] is 0.968.

In general, Kd refers to a measure of binding affinity in units of concentration.

The values above are taken from the FLAb antibody collection (doi:10.7554/elife.23156).
